Ends that are not written are not given here.
Target: T1, fibrin in human clots (Homo sapiens, UniProt P02671+P02675+P02679)
T1 construct: tissue Dade Behring Control Plasma N; host or cells: clots formed in vitro from pooled human plasma with Pathromtin SL and CaCl2
T1 sequence (P02671 36-629 limits assumed): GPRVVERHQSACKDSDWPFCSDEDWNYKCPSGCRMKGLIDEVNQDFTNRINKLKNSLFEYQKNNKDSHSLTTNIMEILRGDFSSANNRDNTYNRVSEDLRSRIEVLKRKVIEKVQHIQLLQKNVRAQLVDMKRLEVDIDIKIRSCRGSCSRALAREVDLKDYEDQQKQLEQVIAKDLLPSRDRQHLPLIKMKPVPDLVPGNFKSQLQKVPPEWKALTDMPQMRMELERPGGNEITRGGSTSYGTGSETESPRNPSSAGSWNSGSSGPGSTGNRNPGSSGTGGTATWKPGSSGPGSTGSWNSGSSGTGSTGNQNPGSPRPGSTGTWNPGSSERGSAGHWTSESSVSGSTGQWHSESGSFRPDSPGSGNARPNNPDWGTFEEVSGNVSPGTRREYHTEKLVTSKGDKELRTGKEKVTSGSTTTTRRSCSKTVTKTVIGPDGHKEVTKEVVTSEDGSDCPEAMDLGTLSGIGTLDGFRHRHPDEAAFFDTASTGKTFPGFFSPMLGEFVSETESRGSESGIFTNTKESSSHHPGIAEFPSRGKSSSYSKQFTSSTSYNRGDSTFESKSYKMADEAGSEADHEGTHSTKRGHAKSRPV
T1 sequence (P02675 45-491 limits assumed): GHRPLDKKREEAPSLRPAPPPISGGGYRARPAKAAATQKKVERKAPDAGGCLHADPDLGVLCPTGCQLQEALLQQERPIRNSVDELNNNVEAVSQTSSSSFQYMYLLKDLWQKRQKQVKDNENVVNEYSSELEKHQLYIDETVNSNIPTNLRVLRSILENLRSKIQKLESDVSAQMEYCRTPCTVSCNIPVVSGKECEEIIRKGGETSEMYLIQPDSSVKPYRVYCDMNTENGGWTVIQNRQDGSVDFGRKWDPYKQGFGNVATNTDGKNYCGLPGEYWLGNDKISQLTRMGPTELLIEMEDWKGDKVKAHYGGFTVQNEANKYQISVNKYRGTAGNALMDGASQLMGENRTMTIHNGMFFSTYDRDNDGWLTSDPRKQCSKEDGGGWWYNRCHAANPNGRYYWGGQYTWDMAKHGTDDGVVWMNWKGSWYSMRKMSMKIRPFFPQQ
T1 sequence (P02679 27-437 isoform P02679-2 limits assumed): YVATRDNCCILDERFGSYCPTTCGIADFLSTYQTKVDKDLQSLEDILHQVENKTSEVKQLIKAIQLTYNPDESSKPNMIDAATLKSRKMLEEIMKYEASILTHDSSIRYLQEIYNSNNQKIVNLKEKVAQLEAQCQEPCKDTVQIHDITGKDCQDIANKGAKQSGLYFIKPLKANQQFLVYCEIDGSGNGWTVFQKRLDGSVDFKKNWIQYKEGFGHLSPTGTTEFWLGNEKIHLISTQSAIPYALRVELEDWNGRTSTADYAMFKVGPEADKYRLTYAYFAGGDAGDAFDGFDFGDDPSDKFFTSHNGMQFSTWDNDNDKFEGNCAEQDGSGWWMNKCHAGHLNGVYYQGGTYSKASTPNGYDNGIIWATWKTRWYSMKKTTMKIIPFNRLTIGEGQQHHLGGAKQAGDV
Assay: In vitro MRI of human clots at different incubation concentrations (Example 15)
Procedure: By following the above procedure, a second wider group of chelate compounds of the invention including, for instance, Chelate Complexes from 1 to 7 and the Reference Compounds from 1 to 6 were tested on human clots at different incubation concentration (25 to 400 μM of complex). Signal enhancement (%) was then determined for each clots by MR Imaging at 2T and corresponding Gd content in clots was measured by ICP.
By comparing the signal enhancement in clots, for instance at incubation concentration of 100 μM of peptide, tested compounds could be classified in term of performance as follows (Max signal enhancement was normalized to the chelate complex 4): […]
High resolution MRI was then performed at 2 Tesla by using T1-weighted Spin-Echo (SE) sequences. T1 maps were also calculated from the acquisitions of 2D gradient echo images or inversion recovery spin echo images.
The maximum signal intensity was measured within a region of interest (ROI) including a clot, drawn by an operator on each MR image using a dedicated software (MR Research Systems Ltd, Surrey UK). Max signal intensity enhancement (Enh %) was determined as: Enh %=100*(SIx−SI0)/SI0 where SI0 and SIx are the signal intensity of clots incubated without and with test compounds, respectively.

Chelate Complex 1: Gd chelate (four DTPA-Glu) conjugated via linker to fibrin-binding peptide SEQ ID NO:001 (WQPCPAESWTFCWDPGGGK; cysteine pairing not given here; also: Gd chelate (four DTPA-Glu) conjugated via linker, site not given here, metal complex: Gd)
Max signal Enhancement (%) at 100 μM (human clots, incubation 100 μM of peptide, MRI at 2T, normalized to chelate complex 4): 93.2% | Signal enhancement in clots, comparison in words (incubation concentration 100 μM): best results
